The source of these data is patent publication US20240116985A1, “STAPLED PEPTIDES AND METHODS THEREOF” (priority 2020, published 2024).

First the molecules themselves.
B1: I-2182 (peptide)
peptide: Ac-[αAllylPro]D[tBuAla][B5(4)]DDAAFN[PyrS2″][3Thi][34ClF]Q-NH2
modifications: staple 1-4, 4-11; reading uncertain; also: printed as Ac-PL3-Asp-Npg-B5-Asp-Asp-Ala-Ala-Phe-Asn-PyrS2-3Thi-34C1F-Gln-NH2

Starred links: 1 amine or outer side, 2 acyl side, 3 side chain; linkers in the order of their positions; H or OH if unused. Positions of bridges follow the written chain, without caps; N, C: chain ends. Non-standard residues stand in square brackets, D forms with d. Primed or numbered codes have the meaning given here. PyrS2″ = (S)-3-amino-1-((pent-4-en-1-yloxy)carbonyl)pyrrolidine-3-carboxylic acid (stapling residue), C=CCCCOC(=O)N1CC[C@@](N[*:1])(C(=O)[*:2])C1; B5(4) = 2,2-bis(4-pentenyl)glycine = 2-amino-2-(pent-4-en-1-yl)hept-6-enoic acid (stitching residue), C=CCCCC(CCCC=C)(N[*:1])C(=O)[*:2]; B5(5) = 2,2-bis(4-pentenyl)glycine, 2-amino-2-(pent-4-en-1-yl)hept-6-enoic acid (stitching residue), C=CCCCC(CCCC=C)(N[*:1])C(=O)[*:2]; Me2Asn = listed as N4-methyl-L-asparagine, CNC(=O)C[C@H](N[*:1])C(=O)[*:2]; Phe(3-COOH) = N[C@@H](Cc1cccc(C(=O)O)c1)C(=O)O; Phe(2-CF3) = N[C@@H](Cc1ccccc1C(F)(F)F)C(=O)O; Bta = N[C@@H](Cc1csc2ccccc12)C(=O)O; Lys(iPr) = CC(C)NCCCC[C@H](N)C(=O)O; αAllylPro = C=CC[C@@]1(C(=O)O)CCCN1; tBuAla = CC(C)(C)C[C@H](N)C(=O)O; 3Thi = N[C@@H](Cc1ccsc1)C(=O)O; Cha = N[C@@H](CC1CCCCC1)C(=O)O; 34ClF = not defined here; Nle = CCCC[C@H](N)C(=O)O; Aib = CC(C)(N)C(=O)O

This assay concerns the target full-length beta-Catenin (Uniprot ID P35222) (Homo sapiens (Human)) (UniProt P35222). Put plainly: fluorescence polarization competition; 10 nM full-length beta-catenin, 10 nM 5FAM-TCF4(10-53) probe. For orientation: Fluorescence polarisation rises when a labelled molecule tumbles more slowly, as on binding a larger partner.
The molecule Ac-[αAllylPro]D[tBuAla][B5(4)]D[Phe(3-COOH)]AAFF[PyrS2″][Phe(2-CF3)][Bta][Me2Gln]-NH2 (staple 1-4, 4-11) [I-2534] registered a concentration for half-maximal inhibition (IC50) of 21 nM.

The molecule Ac-[αAllylPro]N[tBuAla][B5(5)]DQ[Lys(iPr)]AF[Lys(iPr)][PyrS2″]F[Bta][Lys(iPr)]-NH2 (staple 1-4, 4-11) [I-1654] came in with an IC50 of 2130 nM. On to Ac-[αAllylPro]D[tBuAla][B5(4)]D[Phe(3-COOH)]AAFF[PyrS2″][Phe(2-CF3)][Bta][MorphGln]-NH2 (staple 1-4, 4-11) [I-2543], for which the half-maximal inhibitory concentration (IC50) stood at 37 nM. Ac-[αAllylPro]D[tBuAla][B5(4)]D[Phe(3-COOH)][Me2Asn]AFL[PyrS2″][3Thi][Bta][tBuAla]-NH2 (staple 1-4, 4-11) [I-2196] yielded a half-maximal inhibitory concentration (IC50) of 41 nM. This IC50 and that of the molecule before are within 1.5-fold of each other. Molecule Ac-[αAllylPro]D[tBuAla][B5(4)]D[Phe(3-COOH)]SAFL[PyrS2″][3Thi][Bta][tBuAla]-NH2 (staple 1-4, 4-11) [I-2195] showed an IC50 of 62 nM. On to Ac-[αAllylPro]D[tBuAla][B5(4)]D[Phe(3-COOH)][Me2Asn]AFL[PyrS2″][3Thi][Bta]V-NH2 (staple 1-4, 4-11) [I-2191], for which the 50% inhibitory concentration (IC50) came to 16 nM. For the molecule Ac-[αAllylPro]D[tBuAla][B5(4)]D[Phe(3-COOH)][Nle]AFL[PyrS2″][3Thi][Bta]V-NH2 (staple 1-4, 4-11) [I-2189], the half-inhibitory concentration (IC50) came to 83 nM.

On to B1, for which the IC50 came to 5 nM. Next, Ac-[αAllylPro]D[tBuAla][B5(4)]D[Phe(3-COOH)]AAFL[PyrS2″][Phe(2-CF3)][Bta][MorphGln]-NH2 (staple 1-4, 4-11) [I-2541]: 21 nM; Ac-[αAllylPro]N[tBuAla][B5(5)]DQ[Lys(iPr)]AF[Lys(iPr)][PyrS2″]F[Bta]Q-NH2 (staple 1-4, 4-11) [I-1653]: 903 nM; Ac-[αAllylPro]D[tBuAla][B5(4)]D[Phe(3-COOH)]QAFL[PyrS2″][3Thi][Bta][tBuAla]-NH2 (staple 1-4, 4-11) [I-2192]: 22 nM. The molecule Ac-[αAllylPro]D[tBuAla][B5(4)]D[Phe(3-COOH)][Aib]AFL[PyrS2″][3Thi][Bta][tBuAla]-NH2 (staple 1-4, 4-11) [I-2194] had a 50% inhibitory concentration (IC50) of 91 nM. Compared with the last molecule, the IC50 is about 4.1-fold higher. In the case of Ac-[αAllylPro]D[tBuAla][B5(4)]D[Phe(3-COOH)][Nle]AFL[PyrS2″][3Thi][Bta][tBuAla]-NH2 (staple 1-4, 4-11) [I-2193], the 50% inhibitory concentration (IC50) was found to be 164 nM. Regarding Ac-[αAllylPro]N[tBuAla][B5(5)]DQ[Lys(iPr)]AFL[PyrS2″]F[Bta][Cha]-NH2 (staple 1-4, 4-11) [I-1652], the IC50 stood at 10000 nM.

As usually defined, the IC50 is the concentration at which inhibition is half-maximal. Lower therefore signals higher potency.
